Reference: patent US20020052481A1
Read-outs that look alike come from different tables or passages of the source.

How the values were obtained:
[1] = biological target: recombinant gp120 from the primary isolate HIV-1JR-FL (HIV-1JR-FL); test: modified ELISA, gp120 captured on plate
[2] = biological target: recombinant gp120 from the laboratory-adapted strain HIV-1LAI (HIV-1LAI) (UniProt P03377); test: modified ELISA, gp120 captured on plate
[3] = biological target: HIV-1JR-FL envelope glycoprotein gp120/gp41 on cells (HIV-1JR-FL)
[4] = biological target: HIV-1JR-FL envelope glycoprotein gp120/gp41 on cells (HIV-1JR-FL); remark: listed apart in the source
[5] = biological target: HIV-1LAI envelope glycoprotein gp120/gp41 on cells (HIV-1LAI) (UniProt P03377)

Substance | EC50 [1] [nM] | EC50 [2] [nM] | EC50 [3] [nM] | EC50 [4] [nM] | EC50 [5] [nM]
CD4-IgG2 chimeric heterotetramer (Fc fusion) | 1.27 | 1.47 | – | – | –
^125I-CD4-IgG2 (Fc fusion) | 2.36 | 1.05 | 10 to 40 | 12.8 | 19
